Results taken from article PMC3526836.

B1: NHERF1 PDZ1 domain (N-terminal PDZ domain of NHERF1/EBP50), wild type (domain or fragment)
chain: LPRLCCLEKGPNGYGFHLHGEKGKLGQYIRLVEPGSPAEKAGLLAGDRLVEVNGENVEKETHQQVVSRIRAALNAVRLLVVDPETDEQL
B2: NHERF1 PDZ1 domain Y38A/R40A (domain or fragment)
chain: LPRLCCLEKGPNGYGFHLHGEKGKLGQAIALVEPGSPAEKAGLLAGDRLVEVNGENVEKETHQQVVSRIRAALNAVRLLVVDPETDEQL
B3: NHERF1 PDZ1 domain K32A/K34A (domain or fragment)
chain: LPRLCCLEKGPNGYGFHLHGEAGALGQYIRLVEPGSPAEKAGLLAGDRLVEVNGENVEKETHQQVVSRIRAALNAVRLLVVDPETDEQL

These binders were tested against C-terminal peptide of cystic fibrosis transmembrane conductance regulator (CFTR), F-Ahx-VQDTLR (assay: fluorescence polarisation).

B1 and B2 are within 1.5-fold of each other in Kd: 13 µM for the first, 14 µM for the second.

Work on B3 yielded a Kd of 13 µM.
